# Experiments:
# Test in all cases: cell-based or functional assay
# [1] = molecular target: HIV-1 Env of pseudovirus ZM197M.PB7 (HIV-1)
# [2] = molecular target: HIV-1 Env of pseudovirus QH0692.42 (HIV-1)
# [3] = molecular target: HIV-1 Env of pseudovirus 249M B10 (HIV-1)
# [4] = molecular target: HIV-1 Env of pseudovirus ZM135M.PL10a (HIV-1)
# [5] = molecular target: HIV-1 Env of pseudovirus Ce2010_F5 (HIV-1)
# [6] = molecular target: HIV-1 Env of pseudovirus ZM53M.PB12 (HIV-1)
# [7] = molecular target: HIV-1 Env of pseudovirus ZM109F.PB4 (HIV-1)
# [8] = molecular target: HIV-1 Env of pseudovirus TRJO4551.58 (HIV-1)
# [9] = molecular target: HIV-1 Env of pseudovirus HIV-0013095-2.11 (HIV-1)
# [10] = molecular target: HIV-1 Env of pseudovirus ZM233M.PB6 (HIV-1)
# [11] = molecular target: HIV-1 Env of pseudovirus 1006_11_C3_1601 (HIV-1)
# [12] = molecular target: HIV-1 Env of pseudovirus Q461.e2 (HIV-1)
# [13] = molecular target: HIV-1 Env of pseudovirus 6240_08_TA5_4622 (HIV-1)
# [14] = molecular target: HIV-1 Env of pseudovirus 62357_14_D3_4589 (HIV-1)
# [15] = molecular target: HIV-1 Env of pseudovirus Q259.d2.17 (HIV-1)
# [16] = molecular target: HIV-1 Env of pseudovirus CNE8 (HIV-1)
# [17] = molecular target: HIV-1 Env of pseudovirus 6244_13_B5_4576 (HIV-1)
# [18] = molecular target: HIV-1 Env of pseudovirus CNE58 (HIV-1)
# [19] = molecular target: HIV-1 Env of pseudovirus Q842.d12 (HIV-1)
# [20] = molecular target: HIV-1 Env of pseudovirus Du172.17 (HIV-1)
# [21] = molecular target: HIV-1 Env of pseudovirus CAP45.2.00.G3 (HIV-1)
# [22] = molecular target: HIV-1 Env of pseudovirus BF1266.431a (HIV-1)
# [23] = molecular target: HIV-1 Env of pseudovirus CNE53 (HIV-1)
# [24] = molecular target: HIV-1 Env of pseudovirus RHPA4259.7 (HIV-1)
# [25] = molecular target: HIV-1 Env of pseudovirus MS208.A1 (HIV-1)
# [26] = molecular target: HIV-1 Env of pseudovirus 7030102001E5(Rev-) (HIV-1)
# [27] = molecular target: HIV-1 Env of pseudovirus 1012_11_TC21_3257 (HIV-1)
# [28] = molecular target: HIV-1 Env of pseudovirus ZM214M.PL15 (HIV-1)
# [29] = molecular target: HIV-1 Env of pseudovirus Ce0393_C3 (HIV-1)
# [30] = molecular target: HIV-1 Env of pseudovirus CNE17 (HIV-1)
# [31] = molecular target: HIV-1 Env of pseudovirus Du422.1 (HIV-1)
# [32] = molecular target: HIV-1 Env of pseudovirus Ce704809221_1B3 (HIV-1)
# [33] = molecular target: HIV-1 Env of pseudovirus WEAU_d15_410_787 (HIV-1)
# [34] = molecular target: HIV-1 Env of pseudovirus 1056_10_TA11_1826 (HIV-1)
# [35] = molecular target: HIV-1 Env of pseudovirus AC10.0.29 (HIV-1)
# [36] = molecular target: HIV-1 Env of pseudovirus ZM249M.PL1 (HIV-1)
# [37] = molecular target: HIV-1 Env of pseudovirus Ce2060_G9 (HIV-1)
substance,measurement,setting,value
N49P7 (antibody),IC50,[1],0.109 µg/mL
same,IC80,[1],0.347 µg/mL
same,MPI,[1],100
same,IC50,[2],0.663 µg/mL
same,IC80,[2],2.41 µg/mL
same,MPI,[2],100
same,IC50,[3],0.081 µg/mL
same,IC80,[3],0.377 µg/mL
same,MPI,[3],100
same,IC50,[4],0.2 µg/mL
same,IC80,[4],0.96 µg/mL
same,MPI,[4],100
same,IC50,[5],0.13 µg/mL
same,IC80,[5],0.547 µg/mL
same,MPI,[5],100
same,IC50,[6],0.251 µg/mL
same,IC80,[6],0.8 µg/mL
same,MPI,[6],100
same,IC50,[7],0.034 µg/mL
same,IC80,[7],0.153 µg/mL
same,MPI,[7],100
same,IC50,[8],0.104 µg/mL
same,IC80,[8],0.351 µg/mL
same,MPI,[8],100
same,IC50,[9],0.073 µg/mL
same,IC80,[9],0.253 µg/mL
same,MPI,[9],100
same,IC50,[10],0.226 µg/mL
same,IC80,[10],0.774 µg/mL
same,MPI,[10],100
same,IC50,[11],0.044 µg/mL
same,IC80,[11],0.158 µg/mL
same,MPI,[11],100
same,IC50,[12],0.261 µg/mL
same,IC80,[12],0.922 µg/mL
same,MPI,[12],100
same,IC50,[13],0.457 µg/mL
same,IC80,[13],1.73 µg/mL
same,MPI,[13],100
same,IC50,[14],0.025 µg/mL
same,IC80,[14],0.102 µg/mL
same,MPI,[14],100
same,IC50,[15],0.332 µg/mL
same,IC80,[15],2.47 µg/mL
same,MPI,[15],98
same,IC50,[16],0.037 µg/mL
same,IC80,[16],0.125 µg/mL
same,MPI,[16],100
same,IC50,[17],0.111 µg/mL
same,IC80,[17],0.386 µg/mL
same,MPI,[17],100
same,IC50,[18],0.029 µg/mL
same,IC80,[18],0.067 µg/mL
same,MPI,[18],100
same,IC50,[19],0.021 µg/mL
same,IC80,[19],0.06 µg/mL
same,MPI,[19],100
same,IC50,[20],0.102 µg/mL
same,IC80,[20],0.668 µg/mL
same,MPI,[20],100
same,IC50,[21],0.06 µg/mL
same,IC80,[21],0.29 µg/mL
same,MPI,[21],100
same,IC50,[22],0.057 µg/mL
same,IC80,[22],0.199 µg/mL
same,MPI,[22],100
same,IC50,[23],0.035 µg/mL
same,IC80,[23],0.124 µg/mL
same,MPI,[23],100
same,IC50,[24],0.083 µg/mL
same,IC80,[24],0.246 µg/mL
same,MPI,[24],100
same,IC50,[25],0.12 µg/mL
same,IC80,[25],0.479 µg/mL
same,MPI,[25],100
same,IC50,[26],0.184 µg/mL
same,IC80,[26],0.832 µg/mL
same,MPI,[26],100
same,IC50,[27],0.046 µg/mL
same,IC80,[27],0.125 µg/mL
same,MPI,[27],100
same,IC50,[28],0.213 µg/mL
same,IC80,[28],0.953 µg/mL
same,MPI,[28],100
same,IC50,[29],0.195 µg/mL
same,IC80,[29],0.802 µg/mL
same,MPI,[29],100
same,IC50,[30],0.126 µg/mL
same,IC80,[30],0.46 µg/mL
same,MPI,[30],100
same,IC50,[31],4.5 µg/mL
same,IC80,[31],19.5 µg/mL
same,MPI,[31],93
same,IC50,[32],0.141 µg/mL
same,IC80,[32],0.932 µg/mL
same,MPI,[32],100
same,IC50,[33],0.045 µg/mL
same,IC80,[33],0.117 µg/mL
same,MPI,[33],100
same,IC50,[34],0.141 µg/mL
same,IC80,[34],0.468 µg/mL
same,MPI,[34],100
same,IC50,[35],5.03 µg/mL
same,IC80,[35],36.7 µg/mL
same,MPI,[35],89
same,IC50,[36],0.039 µg/mL
same,IC80,[36],0.134 µg/mL
same,MPI,[36],100
same,IC50,[37],0.661 µg/mL
same,IC80,[37],2.55 µg/mL
same,MPI,[37],100
VRC07 (antibody),IC50,[1],0.307 µg/mL
same,IC80,[1],1.27 µg/mL
same,IC50,[2],0.5 µg/mL
same,IC80,[2],1.86 µg/mL
same,IC50,[3],0.052 µg/mL
same,IC80,[3],0.204 µg/mL
same,IC50,[4],0.104 µg/mL
same,IC80,[4],0.383 µg/mL
same,IC50,[5],0.131 µg/mL
same,IC80,[5],0.48 µg/mL
same,IC50,[6],0.275 µg/mL
same,IC80,[6],1.29 µg/mL
same,IC50,[7],0.112 µg/mL
same,IC80,[7],0.389 µg/mL
same,IC50,[8],0.032 µg/mL
same,IC80,[8],0.125 µg/mL
same,IC50,[9],0.017 µg/mL
same,IC80,[9],0.057 µg/mL
same,IC50,[10],0.152 µg/mL
same,IC80,[10],0.625 µg/mL
same,IC50,[11],0.015 µg/mL
same,IC80,[11],0.046 µg/mL
same,IC50,[12],0.282 µg/mL
same,IC80,[12],1.02 µg/mL
same,IC50,[13],0.448 µg/mL
same,IC80,[13],1.54 µg/mL
same,IC50,[14],0.075 µg/mL
same,IC80,[14],0.256 µg/mL
same,IC50,[15],0.024 µg/mL
same,IC80,[15],0.1 µg/mL
same,IC50,[17],0.065 µg/mL
same,IC80,[17],0.23 µg/mL
same,IC50,[18],0.11 µg/mL
same,IC80,[18],0.298 µg/mL
same,IC50,[19],0.015 µg/mL
same,IC80,[19],0.051 µg/mL
same,IC50,[20],0.796 µg/mL
same,IC80,[20],3.66 µg/mL
same,IC50,[21],0.355 µg/mL
same,IC80,[21],3.09 µg/mL
same,IC50,[22],0.032 µg/mL
same,IC80,[22],0.117 µg/mL
same,IC50,[23],0.031 µg/mL
same,IC80,[23],0.086 µg/mL
same,IC50,[24],0.017 µg/mL
same,IC80,[24],0.048 µg/mL
same,IC50,[25],0.12 µg/mL
same,IC80,[25],0.425 µg/mL
same,IC50,[26],0.205 µg/mL
same,IC80,[26],0.911 µg/mL
same,IC50,[27],0.014 µg/mL
same,IC80,[27],0.045 µg/mL
same,IC50,[28],0.198 µg/mL
same,IC80,[28],1.42 µg/mL
same,IC50,[29],0.182 µg/mL
same,IC80,[29],0.634 µg/mL
same,IC50,[30],0.136 µg/mL
same,IC80,[30],0.651 µg/mL
same,IC50,[31],> 50 µg/mL
same,IC80,[31],> 50 µg/mL
same,IC50,[32],0.273 µg/mL
same,IC80,[32],1.14 µg/mL
same,IC50,[33],0.034 µg/mL
same,IC80,[33],0.115 µg/mL
same,IC50,[34],0.239 µg/mL
same,IC80,[34],1.11 µg/mL
same,IC50,[35],0.282 µg/mL
same,IC80,[35],0.986 µg/mL
same,IC50,[36],0.041 µg/mL
same,IC80,[36],0.145 µg/mL
same,IC50,[37],0.085 µg/mL
same,IC80,[37],0.422 µg/mL
